The values that follow come from patent US20050227296A1, “Method for indentifying integrin antagonists” (The General Hospital Corporation, a Massachusetts …, priority 1988, published 2005).

What is called IC50 is the point on the concentration scale where inhibition reaches its midpoint. By Kd is commonly meant the equilibrium constant for the complex coming apart.

For experiment [1], the target named is recombinant Ancylostoma caninum neutrophil adhesion inhibitor (NIF) (Ancylostoma caninum). Description: competition: fluid-phase r11bA against biotinylated rNIF binding to immobilized r11bA, plate assay.
The target in experiment [2] is complement iC3b on erythrocytes (EAiC3b) (human) (UniProt P01024). Description: fluid-phase rA-domain against EAiC3b binding to immobilized rA-domain.
Chain of complement iC3b on erythrocytes (EAiC3b) (human) (P01024 23-667 limits assumed, chain 1 of 3): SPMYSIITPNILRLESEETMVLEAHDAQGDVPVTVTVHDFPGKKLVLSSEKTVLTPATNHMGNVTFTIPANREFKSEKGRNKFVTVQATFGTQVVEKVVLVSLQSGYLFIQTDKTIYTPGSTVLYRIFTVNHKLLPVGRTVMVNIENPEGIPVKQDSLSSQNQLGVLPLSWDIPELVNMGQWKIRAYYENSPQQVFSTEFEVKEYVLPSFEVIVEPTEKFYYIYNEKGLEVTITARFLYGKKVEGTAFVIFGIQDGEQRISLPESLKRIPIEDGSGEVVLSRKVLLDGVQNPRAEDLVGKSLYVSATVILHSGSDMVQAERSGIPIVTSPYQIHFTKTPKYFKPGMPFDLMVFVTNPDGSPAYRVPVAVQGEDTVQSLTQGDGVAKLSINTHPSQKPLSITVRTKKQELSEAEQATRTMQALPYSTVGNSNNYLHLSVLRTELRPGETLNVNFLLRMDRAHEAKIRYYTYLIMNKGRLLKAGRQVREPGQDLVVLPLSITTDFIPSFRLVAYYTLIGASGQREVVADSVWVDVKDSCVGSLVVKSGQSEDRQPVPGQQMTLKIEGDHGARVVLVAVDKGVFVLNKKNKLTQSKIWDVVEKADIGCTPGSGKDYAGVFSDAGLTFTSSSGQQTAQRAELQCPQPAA
Chain of complement iC3b on erythrocytes (EAiC3b) (human) (P01024 749-1303 limits assumed, chain 2 of 3): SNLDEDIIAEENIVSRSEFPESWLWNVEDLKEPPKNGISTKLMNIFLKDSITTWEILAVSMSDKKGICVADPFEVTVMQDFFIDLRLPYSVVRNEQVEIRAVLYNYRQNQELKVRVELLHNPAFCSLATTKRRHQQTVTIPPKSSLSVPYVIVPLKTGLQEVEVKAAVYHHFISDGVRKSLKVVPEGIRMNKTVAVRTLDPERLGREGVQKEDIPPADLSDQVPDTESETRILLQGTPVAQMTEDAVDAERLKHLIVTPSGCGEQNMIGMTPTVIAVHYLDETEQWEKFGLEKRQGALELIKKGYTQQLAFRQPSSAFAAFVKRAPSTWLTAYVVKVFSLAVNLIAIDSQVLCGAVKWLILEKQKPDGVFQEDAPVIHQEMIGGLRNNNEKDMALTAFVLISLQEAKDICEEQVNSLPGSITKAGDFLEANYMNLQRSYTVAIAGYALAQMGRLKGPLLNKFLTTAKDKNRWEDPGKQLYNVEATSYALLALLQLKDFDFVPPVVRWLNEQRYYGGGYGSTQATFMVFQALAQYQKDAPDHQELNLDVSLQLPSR
Chain of complement iC3b on erythrocytes (EAiC3b) (human) (P01024 1321-1663 limits assumed, chain 3 of 3): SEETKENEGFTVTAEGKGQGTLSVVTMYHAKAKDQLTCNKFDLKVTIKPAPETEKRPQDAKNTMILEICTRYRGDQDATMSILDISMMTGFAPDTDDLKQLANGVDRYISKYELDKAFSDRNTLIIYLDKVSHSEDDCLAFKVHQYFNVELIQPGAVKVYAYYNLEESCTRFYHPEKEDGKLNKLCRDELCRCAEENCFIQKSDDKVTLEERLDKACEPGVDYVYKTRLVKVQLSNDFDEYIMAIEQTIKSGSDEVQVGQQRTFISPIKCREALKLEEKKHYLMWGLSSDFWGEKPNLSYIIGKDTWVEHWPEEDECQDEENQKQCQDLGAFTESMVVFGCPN
Experiment [3] deals with recombinant Ancylostoma caninum neutrophil adhesion inhibitor (NIF) (Ancylostoma caninum). Description: competition: fluid-phase r11bA against biotinylated rNIF binding to human neutrophils, FACS.
Experiment [4] concerns the target CD11b/CD18 on human neutrophils (human) (UniProt P05107). Kind of experiment: Scatchard plot, biotinylated rNIF on resting or activated neutrophils at 4 C, FACS.
The target in experiment [5] is recombinant CD11b A domain (human) (UniProt P11215). Description: Scatchard analysis of biotinylated rNIF binding to immobilized rA-domain.
Experiment [6] deals with CD11b/CD18 on human neutrophils (human) (UniProt P05107). Kind of experiment: dissociation of biotinylated rNIF from washed neutrophils at 4 C, FACS.
Experiment [7] has as its target recombinant human CD11b/CD18 expressed in COS cells (human) (UniProt P05107). Kind of experiment: rNIF against EAiC3b binding to recombinant CD11b/CD18 on COS cells, fluorescence.
Experiment [8] deals with CD11b/CD18 on human neutrophils (human) (UniProt P05107). Description: biotinylated rNIF on f-met-leu-phe activated against resting neutrophils, FACS.
For experiment [9] the target is unchanged. Description: time course of biotinylated NIF binding to neutrophils at 4 C, FACS.

Turning to “recombinant CD11b A domain (from UniProt P11215 144-337) (receptor)”, the IC50 came to 0.001 µM in experiment [1], 1000 µM in experiment [2] and 0.001 µM in experiment [3].

In [4], “recombinant Ancylostoma caninum neutrophil adhesion inhibitor (NIF) (ligand)” registered a Kd of 0.00035 to 0.0013 µM. In addition, in experiment [5], the dissociation constant (Kd) was 0.001 µM. The t1/2 of dissociation in [6] is 7.6 h. Besides, in experiment [7], the IC50 came out at 0.005 µM and the concentration for complete inhibition is 3 mg/mL. Further, the fold increase in NIF binding to activated vs resting cells in experiment [8] is 12 fold. For the same substance, the t1/2 of association in [9] stood at 0.25 h.
